Like-named read-outs stand apart in the source and are kept apart here.

In data set [1] the test system is synthetic substrate peptide […].
Data set [2] has as its system MBP-ENLYFQS-GST fusion protein.
Data set [3] addresses synthetic substrate peptide […]. This is another data set of the same source.

Turning to “TEV variant E1 (Q74L, S200N on the TEV-EAV template)”, the “activity on the peptide in vitro” value in data set [1] was “six selected clones showed higher activity on the peptide […] (SEQ ID NO:33) compared to TEV-EAV”.

On to “TEV variant E2 (S3I, P8Q, S31T, A231V on the TEV-EAV template)”, for which, in data set [1], the “activity on the peptide in vitro” value is “six selected clones showed higher activity on the peptide […] (SEQ ID NO:33) compared to TEV-EAV”.

On to “TEV variant E5 (K6M, S15L on the TEV-EAV template)”, for which, in data set [1], the “activity on the peptide in vitro” value is “six selected clones showed higher activity on the peptide […] (SEQ ID NO:33) compared to TEV-EAV”.

As for “TEV variant S6 (E79S, A173G, V219S on the TEV-EAV template)”, the “activity on the peptide in vitro” value in data set [1] is “six selected clones showed higher activity on the peptide […] (SEQ ID NO:33) compared to TEV-EAV”.

On to “TEV variant S7 (E79G, S219R on the TEV-EAV template)”, for which the “activity on the peptide in vitro” value in data set [1] is “six selected clones showed higher activity on the peptide […] (SEQ ID NO:33) compared to TEV-EAV”.

On to “TEV variant S8 (A173D, V219K on the TEV-EAV template)”, for which the “activity on the peptide in vitro” value in data set [1] was “six selected clones showed higher activity on the peptide […] (SEQ ID NO:33) compared to TEV-EAV”.

Turning to TEV-S219P, in data set [2], the “percent of fusion protein digested in 40 minutes at 30° C. at a 1:100 ratio” value was “compared to ˜68% for TEV-EAV and TEV-S219P”.

uTEV3: the “percent of fusion cleaved after 30 mins at a 1:200 protease to substrate ratio” value in data set [2] is “compared to only 30% cleavage with uTEV3”. Further, the KM entry in data set [1] was “the improved catalytic efficiency in uTEV3 appears to be mainly due to a significant KM decrease”.

B1: TEV-EAV, triple mutant TEV variant (G79E, T173A, S219V) (protein)
chain: GESLFKGPRDYNPISSTICHLTNESDGHTTSLYGIGFGPFIITNKHLFRRNNGTLLVQSLHGVFKVKNTTTLQQHLIDERDMIIIRMPKDFPPFPQKLKFREPQREERICLVTNFQTKSMSSMVSDTSCTFPSSDGIFWKHWIQTKDGQCGSPLVSTRDGFIVGIHSASNFANTNNYFTSVPKNFMELLTNQEAQQWVSGWRLNADSVLWGGHKVFMVKPEEPFQPVKEATQLM
With B1, in data set [3], the KM result was “KM of eTEV remained unchanged at 65 µM with that of TEV-EAV” and the “turnover rate (kcat)” value was “the turnover rate (kcat) was improved from 0.17 s^-1 to 0.41 s^-1”.

B2: enhanced TEV "eTEV" mutant TEV protease (S3I, P8Q, S31T, E79G, T173A, S219R, A231V) (protein)
chain: ILFKGQRDYNPISSTICHLTNESDGHTTTLYGIGFGPFIITNKHLFRRNNGTLLVQSLHGVFKVKNTTTLQQHLIDGRDMIIIRMPKDFPPFPQKLKFREPQREERICLVTTNFQTKSMSSMVSDTSCTFPSSDGIFWKHWIQTKDGQCGSPLVSTRDGFIVGIHSASNFANTNNYFTSVPKNFMELLTNQEAQQWVSGWRLNADSVLWGGHKVFMRKPEEPFQPVKEVTQLMRRRRR
For B2, in data set [3], the KM result is recorded as “KM of eTEV remained unchanged at 65 µM with that of TEV-EAV”, the “fold decreased KM compared to TEV-S219P” value was 2.77-fold decreased KM, the “fold improvement in catalytic efficiency (kcat/KM) compared to TEV-EAV” value is reported as 2-fold improvement in catalytic efficiency (kcat/KM) compared to TEV-EAV and the “fold increase in catalytic efficiency relative to the parent TEV-S219P” value is given as ~8-fold overall increase in catalytic efficiency relative to the parent TEV-S219P. In data set [3], the “fold increased catalytic turnover rate (kcat) compared to TEV-S219P” value is recorded as 2.73-fold increased catalytic turnover rate (kcat) and the “turnover rate (kcat)” value is listed as “the turnover rate (kcat) was improved from 0.17 s^-1 to 0.41 s^-1”.
